Assay results reported in PMC6701479.

Key:
[1] = target: H3K9me3 containing chromatin fibers (12 × 601 arrays with recombinant human histone octamer) (human); test: single-molecule TIRF (smTIRF); chromatin fibers immobilised; 3 nM Atto 532-labeled HP1α with 100 nM KAP1; 50 mM Hepes, 130 mM KCl, 10% glycerol; 22°C
[2] = target: H3K9me3 containing chromatin fibers (12 × 601 arrays with recombinant human histone octamer) (human); test: single-molecule TIRF (smTIRF); chromatin fibers immobilised; 3 nM Atto 532-labeled HP1α with 400 nM KAP1; 50 mM Hepes, 130 mM KCl, 10% glycerol; 22°C
[3] = target: H3K9me3 containing chromatin fibers (12 × 601 arrays with recombinant human histone octamer) (human); test: single-molecule TIRF (smTIRF); chromatin fibers immobilised; 3 nM Atto 532-labeled HP1α with 50 nM KAP1; 50 mM Hepes, 130 mM KCl, 10% glycerol; 22°C
[4] = target: H3K9me3 containing chromatin fibers (12 × 601 arrays with recombinant human histone octamer) (human); test: single-molecule TIRF (smTIRF); chromatin fibers immobilised; 3 nM Atto 532-labeled HP1α with 200 nM KAP1; 50 mM Hepes, 130 mM KCl, 10% glycerol; 22°C

Atto 532–labeled HP1α, sequence (P45973 whole entry): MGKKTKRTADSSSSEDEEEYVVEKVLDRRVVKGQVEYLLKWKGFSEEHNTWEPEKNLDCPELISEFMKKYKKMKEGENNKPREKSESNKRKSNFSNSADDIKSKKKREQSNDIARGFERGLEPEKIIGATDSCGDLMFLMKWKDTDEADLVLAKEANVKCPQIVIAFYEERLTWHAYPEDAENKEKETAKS

kon [1]: 1.42e+06 M⁻¹ s⁻¹ | τ (off,1) [1]: 0.28 s | τ (off,2) [1]: 5.79 s | kon [2]: 770000 M⁻¹ s⁻¹ | τ (off,1) [2]: 0.23 s | τ (off,2) [2]: 5.03 s | kon [3]: 1.03e+06 M⁻¹ s⁻¹ | τ (off,1) [3]: 0.29 s | τ (off,2) [3]: 3.64 s | kon [4]: 1.43e+06 M⁻¹ s⁻¹ | τ (off,1) [4]: 0.27 s | τ (off,2) [4]: 5.47 s
Substance: Atto 532–labeled HP1α (from UniProt P45973 1-191) (natural protein)
